Source: patent US20230235004A1 (published 2023)

Experiments:
[1] = biological target: T1, recombinant mouse MAdCAM-1 (mouse, UniProt Q61826 22-364, limits assumed); experiment: Octet
T1 construct: also called mMAdCAM-1
T1 sequence (looked up): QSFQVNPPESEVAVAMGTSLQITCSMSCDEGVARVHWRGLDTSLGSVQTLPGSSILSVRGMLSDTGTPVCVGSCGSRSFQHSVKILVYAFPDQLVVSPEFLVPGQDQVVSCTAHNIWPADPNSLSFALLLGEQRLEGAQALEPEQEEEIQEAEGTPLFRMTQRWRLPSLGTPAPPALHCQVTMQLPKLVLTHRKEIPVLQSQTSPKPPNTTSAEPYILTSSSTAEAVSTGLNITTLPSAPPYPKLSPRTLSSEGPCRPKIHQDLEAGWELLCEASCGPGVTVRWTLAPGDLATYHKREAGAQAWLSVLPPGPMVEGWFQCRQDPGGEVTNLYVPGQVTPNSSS

human MAdCAM protein = biological target: T2, human MAdCAM protein (human, UniProt Q13477 19-317, limits assumed); experiment: Octet
T2 construct: also called soluble monomeric human MAdCAM; recombinant human MAdCAM
T2 sequence (looked up): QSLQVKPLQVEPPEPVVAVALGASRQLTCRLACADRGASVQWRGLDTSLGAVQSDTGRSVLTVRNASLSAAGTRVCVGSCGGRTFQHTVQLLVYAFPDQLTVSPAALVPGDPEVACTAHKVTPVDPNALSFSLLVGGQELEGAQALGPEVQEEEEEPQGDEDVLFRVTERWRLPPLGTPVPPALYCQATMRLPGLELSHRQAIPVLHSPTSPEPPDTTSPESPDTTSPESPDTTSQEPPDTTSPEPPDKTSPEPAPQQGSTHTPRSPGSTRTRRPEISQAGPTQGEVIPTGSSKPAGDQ

[2] = biological target: T3, human MAdCAM expressed on cells (human, UniProt Q13477 19-382); experiment: cell binding
T3 construct: whole, on cells
T3 sequence (looked up): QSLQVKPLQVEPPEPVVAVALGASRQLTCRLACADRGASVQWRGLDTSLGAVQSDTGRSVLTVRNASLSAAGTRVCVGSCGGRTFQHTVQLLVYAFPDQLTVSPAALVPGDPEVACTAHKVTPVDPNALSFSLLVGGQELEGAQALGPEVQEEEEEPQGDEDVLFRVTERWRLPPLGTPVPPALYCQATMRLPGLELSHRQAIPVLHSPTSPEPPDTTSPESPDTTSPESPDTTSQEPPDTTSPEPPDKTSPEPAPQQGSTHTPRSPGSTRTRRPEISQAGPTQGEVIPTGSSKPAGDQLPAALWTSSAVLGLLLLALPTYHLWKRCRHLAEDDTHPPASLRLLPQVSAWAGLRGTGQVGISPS

[3] = biological target: T4, mouse MAdCAM expressed on cells (mouse, UniProt Q61826 22-405); experiment: cell binding
T4 construct: whole, on cells
T4 sequence (looked up): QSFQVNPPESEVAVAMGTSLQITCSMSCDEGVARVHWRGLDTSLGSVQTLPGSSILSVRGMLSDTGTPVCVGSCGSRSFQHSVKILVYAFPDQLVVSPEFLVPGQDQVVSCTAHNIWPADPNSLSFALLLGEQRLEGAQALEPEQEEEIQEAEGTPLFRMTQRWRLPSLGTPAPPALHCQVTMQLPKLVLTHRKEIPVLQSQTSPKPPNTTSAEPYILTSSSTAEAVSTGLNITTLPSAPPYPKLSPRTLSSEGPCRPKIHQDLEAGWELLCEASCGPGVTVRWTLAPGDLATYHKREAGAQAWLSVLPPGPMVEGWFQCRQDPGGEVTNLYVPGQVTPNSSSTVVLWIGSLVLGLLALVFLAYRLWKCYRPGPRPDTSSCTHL

B1: MAdCAM antibody Table 1 clone 4 (scFv)
scFv: QVQLVQSGAEVKKPGASVKVSCKASGGTFSSYAISWVRQAPGQGLEWMGSINPSGDTTSYAQKFQGRVTMTRDTSTSTVYMELSSLRSEDTAVYYCAKDKAQWLVGYFDYWGQGTLVTVSSGGGGSGGGGSGGGGSGGGGSDIQMTQSPSSLSASVGDRVTITCQASQDISNSLNWYQQKPGKAPKLLIYAASSLQSGVPSRFSGSGSGTDFTLTISSLQPEDFATYYCQQSYSSVITFGQGTKVEIK
- binding result [1]: binds
- binding result (human MAdCAM protein): binds
- binding result [2]: binds
- binding result [3]: binds

B2: MAdCAM antibody Table 1 clone 2 (scFv)
scFv: QVQLVQSGAEVKKPGASVKVSCKASGYPFIGYYLHWVRQAPGQGLEWMGIINPSGGSTSYAQKFQGRVTMTRDTSTSTVYMELSSLRSEDTAVYYCAREGRLSYGMDAWGQGTLVTVSSGGGGSGGGGSGGGGSGGGGSDIQMTQSPSSLSASVGDRVTITCRASQSISSYLAWYQQKPGKAPKLLIYGASTLESGVPSRFSGSGSGTDFTLTISSLQPEDFATYYCQQTWGPPFTFGQGTKLEIK
- binding result [1]: binds
- binding result (human MAdCAM protein): binds
- binding result [2]: binds
- binding result [3]: binds

B3: MAdCAM antibody Table 1 clone 59 (scFv)
scFv: EVQLLESGGGLVQPGGSLRLSCAASGFTFSDFWMHWVRQAPGKGLEWISYISGDSGYTNYADSVKGRFTISRDNSKNTLYLQMNSLRAEDTAVYYCARDRPYYYYMDVWGKGTTVTVSSGGGGSGGGGSGGGGSGGGGSDIQMTQSPSSLSASVGDRVTITCRASQSVSRSLAWYQQKPGKAPKLLIYAASSLQSGVPSRFSGSGSGTDFTLTISSLQPEDFATYYCQQYKSYPVTFGQGTKVEIK
- binding result [1]: binds
- binding result (human MAdCAM protein): binds
- binding result [2]: binds
- binding result [3]: binds

B4: MAdCAM antibody Table 1 clone 63 (scFv)
scFv: EVQLLESGGGLVKPGGSLRLSCAASGFTFDDYAMHWVRQAPGKGLEWVASITSSSAFIDYAASVKGRFTISRDDSKNTLYLQMNSLKTEDTAVYYCARERVDWNSYFDLWGRGTLVTVSSGGGGSGGGGSGGGGSGGGGSEIVMTQSPATLSVSPGERATLSCRASQGISNSYLAWYQQKPGQAPRLLIYGASTRATGIPARFSGSGSGTEFTLTISSLQSEDFAVYYCQQYYTYPPTFGPGTKVDIK
- binding result [1]: binds
- binding result (human MAdCAM protein): binds
- binding result [2]: binds
- binding result [3]: binds

B5: MAdCAM antibody Table 1 clone 5 (scFv)
scFv: EVQLLESGGGLVQPGGSLRLSCAASGFTFSSYWMHWVRQAPGKGLEWVSSISPGGSNIDYADSVKGRFTISRDNSKNTLYLQMNSLRAEDTAVYYCAREVQLSHYDYWGQGTLVTVSSGGGGSGGGGSGGGGSGGGGSDIQMTQSPSSLSASVGDRVTITCRASQGISNSLAWYQQKPGKAPKLLIYGASSLQSGVPSRFSGSGSGTDFTLTISSLQPEDFATYYCQQANSFPFTFGQGTKVEIK
- binding result [1]: binds
- binding result (human MAdCAM protein): binds
- binding result [2]: binds
- binding result [3]: binds

B6: MAdCAM antibody Table 1 clone 6 (scFv)
scFv: EVQLLESGGGLVQPGGSLRLSCAASGFTFNNYAFHWVRQAPGKGLEWVSRINSYGTSTTYADSVKGRFTISRDNSKNTLYLQMNSLRAEDTAVYYCAREGPVAGYWYFDLWGQGTLVTVSSGGGGSGGGGSGGGGSGGGGSDIQMTQSPSSLSASVGDRVTITCRASQIIGTNLAWYQQKPGKAPKLLIYGASSLQSGVPSRFSGSGSGTDFTLTISSLQPEDFATYYCQQSYRLPFTFGQGTKVEIK
- binding result [1]: no binding
- binding result (human MAdCAM protein): binds
- binding result [2]: binds
- binding result [3]: no binding
